According to publication PMC5630700 (Frontiers in Immunology, 2017):

Biological target: MARV Musoke NP tagged with FLAG at the N-terminus and His6 at the C-terminus (Wt) (Marburg virus Musoke-80, UniProt P27588)
Test: far-Western, overlay or dot blot
Conditions: one partner purified

Sequence of MARV Musoke NP tagged with FLAG at the N-terminus and His6 at the C-terminus (Wt) (P27588 whole entry): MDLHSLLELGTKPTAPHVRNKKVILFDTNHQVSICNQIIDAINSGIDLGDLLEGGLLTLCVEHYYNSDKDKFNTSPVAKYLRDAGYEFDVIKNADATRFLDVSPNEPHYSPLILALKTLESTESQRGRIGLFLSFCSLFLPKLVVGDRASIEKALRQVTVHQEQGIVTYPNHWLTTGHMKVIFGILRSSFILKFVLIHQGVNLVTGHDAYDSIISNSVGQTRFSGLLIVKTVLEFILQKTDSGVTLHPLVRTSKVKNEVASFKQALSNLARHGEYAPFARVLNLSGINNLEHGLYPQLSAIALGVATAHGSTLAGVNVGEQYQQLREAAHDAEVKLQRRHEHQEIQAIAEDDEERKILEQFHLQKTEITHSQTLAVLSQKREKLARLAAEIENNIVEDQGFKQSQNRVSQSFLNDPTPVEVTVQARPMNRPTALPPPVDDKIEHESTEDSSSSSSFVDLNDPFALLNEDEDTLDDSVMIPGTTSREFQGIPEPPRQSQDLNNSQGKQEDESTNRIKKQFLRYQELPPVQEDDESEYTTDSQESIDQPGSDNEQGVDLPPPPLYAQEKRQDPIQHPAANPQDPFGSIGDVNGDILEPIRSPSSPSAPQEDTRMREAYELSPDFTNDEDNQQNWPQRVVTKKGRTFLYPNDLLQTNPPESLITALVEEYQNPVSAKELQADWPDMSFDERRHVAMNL

B1: sdAb D–alkaline phosphatase fusion protein (pecan16) (VHH)
VHH: KVKLQESGGGTVQAGGSLRLSCKASGFTFRSSAMGWYRRAPGQHRIFVGSFSRNEFKYADFAQGRFTISRDNAKNTVSLQMNHVIPEDTAVYYCHEDPYGMESLRYWGQGTQVTVSS
B1: binds.
